Source: article PMC5887453 (Nucleic Acids Research, 2018)
Substitutions are numbered along the chain they refer to.

Tests used:
PhoEF-2 M168S = target: T1, PhoEF-2 M168S (Pyrococcus horikoshii, UniProt O59521 1-732, M168S); test: native gel or EMSA
T1 sequence (looked up): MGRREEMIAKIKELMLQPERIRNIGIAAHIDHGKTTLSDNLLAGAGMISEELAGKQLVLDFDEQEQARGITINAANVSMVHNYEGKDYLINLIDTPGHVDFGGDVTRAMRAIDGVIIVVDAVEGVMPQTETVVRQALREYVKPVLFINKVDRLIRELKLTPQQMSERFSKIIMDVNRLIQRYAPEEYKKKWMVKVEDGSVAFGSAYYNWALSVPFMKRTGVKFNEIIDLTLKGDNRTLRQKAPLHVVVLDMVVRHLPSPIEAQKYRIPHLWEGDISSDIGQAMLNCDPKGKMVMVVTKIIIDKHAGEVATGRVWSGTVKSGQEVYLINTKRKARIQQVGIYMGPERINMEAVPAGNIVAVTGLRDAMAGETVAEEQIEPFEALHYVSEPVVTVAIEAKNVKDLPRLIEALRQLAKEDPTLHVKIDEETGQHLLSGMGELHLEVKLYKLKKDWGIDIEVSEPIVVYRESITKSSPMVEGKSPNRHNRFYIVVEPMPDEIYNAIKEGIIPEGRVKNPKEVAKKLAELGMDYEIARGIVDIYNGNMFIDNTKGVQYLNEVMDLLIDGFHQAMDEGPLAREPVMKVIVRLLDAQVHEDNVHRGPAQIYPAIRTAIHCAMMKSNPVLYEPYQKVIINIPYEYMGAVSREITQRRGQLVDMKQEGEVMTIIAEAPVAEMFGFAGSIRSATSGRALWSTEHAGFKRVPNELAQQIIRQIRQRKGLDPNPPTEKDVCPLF

PhoEF-2 P164S = target: T2, PhoEF-2 P164S (Pyrococcus horikoshii, UniProt O59521 1-732, P164S); test: native gel or EMSA
T2 sequence (looked up): T1 sequence (looked up) with P161S, S165M

B1: Pyrococcus horikoshii ribosomal stalk protein P1 (natural protein, UniProt O57705 1-108, looked up)
chain: MEYVYAALLLHSVGKEINEENLKAVLQAAGVEPEEARIKALVAALEGVNIDEVIEKAAMPVAVAAAPAAAPAEAGGEEKKEEEKKEEEEKEEEVSEEEALAGLSALFG
modifications: in the SPR only: biotin on amino groups via a PEG linker (EZ-Link NHS-PEG4-Biotin)
PhoEF-2 M168S
  binding result: binds
PhoEF-2 P164S
  binding result: binds
